B1: Protein O-mannosyl-transferase 1 (Homo sapiens), Q9Y6A1 (parent)
chain: MWGFLKRPVVVTADINLSLVALTGMGLLSRLWRLTYPRAVVFDEVYYGQYISFYMKQIFFLDDSGPPFGHMVLALGGYLGGFDGNFLWNRIGAEYSSNVPVWSLRLLPALAGALSVPMAYQIVLELHFSHCAAMGAALLMLIENALITQSRLMLLESVLIFFNLLAVLSYLKFFNCQKHSPFSLSWWFWLTLTGVACSCAVGIKYMGVFTYVLVLGVAAVHAWHLLGDQTLSNVGADVQCCMRPACMGQMQMSQGVCVFCHLLARAVALLVIPVVLYLLFFYVHLILVFRSGPHDQIMSSAFQASLEGGLARITQGQPLEVAFGSQVTLRNVFGKPVPCWLHSHQDTYPMIYENGRGSSHQQQVTCYPFKDVNNWWIVKDPRRHQLVVSSPPRPVRHGDMVQLVHGMTTRSLNTHDVAAPLSPHSQEVSCYIDYNISMPAQNLWRLEIVNRGSDTDVWKTILSEVRFVHVNTSAVLKLSGAHLPDWGYRQLEIVGEKLSRGYHGSTVWNVEEHRYGASQEQRERERELHSPAQVDVSRNLSFMARFSELQWRMLALRSDDSEHKYSSSPLEWVTLDTNIAYWLHPRTSAQIHLLGNIVIWVSGSLALAIYALLSLWYLLRRRRNVHDLPQDAWLRWVLAGALCAGGWAVNYLPFFLMEKTLFLYHYLPALTFQILLLPVVLQHISDHLCRSQLQRSIFSALVVAWYSSACHVSNTLRPLTYGDKSLSPHELKALRWKDSWDILIRKH
partner: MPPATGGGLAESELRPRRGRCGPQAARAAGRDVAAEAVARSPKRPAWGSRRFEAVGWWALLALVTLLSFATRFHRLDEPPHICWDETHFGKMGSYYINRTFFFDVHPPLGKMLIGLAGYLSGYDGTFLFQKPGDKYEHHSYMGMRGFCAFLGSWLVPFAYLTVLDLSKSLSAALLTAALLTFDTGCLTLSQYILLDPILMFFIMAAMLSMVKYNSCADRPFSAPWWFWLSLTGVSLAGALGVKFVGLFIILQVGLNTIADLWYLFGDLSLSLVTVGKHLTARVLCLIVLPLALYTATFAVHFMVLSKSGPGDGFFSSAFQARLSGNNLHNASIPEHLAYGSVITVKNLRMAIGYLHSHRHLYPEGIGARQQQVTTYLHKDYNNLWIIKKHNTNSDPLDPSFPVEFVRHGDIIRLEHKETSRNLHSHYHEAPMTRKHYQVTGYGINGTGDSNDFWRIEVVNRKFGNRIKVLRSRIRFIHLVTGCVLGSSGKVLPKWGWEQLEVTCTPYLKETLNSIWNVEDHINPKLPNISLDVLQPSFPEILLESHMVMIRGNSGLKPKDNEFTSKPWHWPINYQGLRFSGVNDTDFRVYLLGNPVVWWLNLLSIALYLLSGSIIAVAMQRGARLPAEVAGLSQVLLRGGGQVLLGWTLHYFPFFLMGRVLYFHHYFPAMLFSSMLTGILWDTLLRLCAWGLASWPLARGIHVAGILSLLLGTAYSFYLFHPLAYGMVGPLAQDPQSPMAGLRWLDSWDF

Variants of: B1
Settings: with pomt2_human POMT2, Q9UKY4

| Variant | effect of a mutation on the interaction |
| --- | --- |
| G65R | with no effect |
| G76R | with no effect |
| A200P | with no effect |
| V428D | with no effect |
| W582C | with no effect |

From IntAct's records for PubMed 16698797
